Measured values: the supplement of paper PMC10567573

B1: RSAD1 (parent)
chain: YCNFNKYIPRRLEEAAMQKCLVTE

Variants of: B1
Experiment: protein stability index of a GFP-peptide fusion (GPS, HEK-293T) (PSI 1-6); higher = more stable
Conditions: c terminus: a fixed tail appended
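Further: lentivirally expressed fusions sorted by FACS into six bins by GFP to DsRed ratio, PSI derived from sequencing read proportions per bin multiplied by bin number.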

In order of rising protein stability index:
1. I8V  1.09
2. F4H  1.21
3. I8G  1.22
4. E14Y  1.33
5. P9R  1.37
6. P9M  1.4
7. L21S  1.42
8. A15I  1.56
9. A16M  1.57
10. E14K  1.58
11. R10T  1.59
12. I8Q  1.61
13. E14H  1.65
14. N3R  1.66
15. N3L  1.66
16. R11Q  1.67
17. M17F  1.67
18. I8R  1.67
19. N5A  1.68
20. Y1F  1.68
21. K6R  1.7
22. K19H  1.7
23. Q18L  1.71
24. R10P  1.74
25. A16F  1.74
26. C2I  1.76
27. Y7M  1.79
28. A16W  1.79
29. E13K  1.82
30. A15C  1.83
31. R11D  1.84
32. C2Q  1.87
33. Q18H  1.88
34. C20T  1.89
35. C2Y  1.89
36. E24V  1.9
37. T23A  1.9
38. R10D  1.92
39. T23S  1.93
40. E13Q  1.93
41. F4C  1.94
42. C20P  1.95
43. R10Q  1.96
44. I8T  1.96
45. E14W  1.96
46. Y1C  1.97
47. M17A  1.98
48. N3E  1.99
49. M17G  1.99
50. M17V  2
51. K19T  2.01
52. Y7I  2.02
53. Q18S  2.02
54. N3P  2.03
55. I8E  2.03
56. Q18R  2.03
57. F4E  2.07
58. L21A  2.09
59. E14T  2.09
60. C20S  2.1
61. C20K  2.11
62. E24W  2.13
63. N5W  2.15
64. R11E  2.17
65. N5I  2.17
66. E24N  2.17
67. L21D  2.17
68. T23M  2.17
69. N5Q  2.18
70. E13R  2.19
71. C2T  2.2
72. K6P  2.21
73. R10F  2.22
74. A15L  2.23
75. F4Y  2.23
76. N3M  2.24
77. A15Q  2.24
78. V22A  2.25
79. E14C  2.27
80. N5K  2.28
81. E24G  2.29
82. C2M  2.31
83. E24R  2.32
84. C2A  2.33
85. E13F  2.34
86. K19N  2.37
87. Y1T  2.38
88. V22S  2.38
89. R10I  2.39
90. R11V  2.41
91. L21E  2.41
92. Q18C  2.41
93. V22E  2.41
94. M17E  2.44
95. L12S  2.45
96. Y1S  2.46
97. E24K  2.46
98. L12E  2.46
99. Y1D  2.47
100. N5R  2.48
101. P9Y  2.48
102. Y1E  2.49
103. E13W  2.49
104. F4N  2.49
105. K6I  2.52
106. Y7C  2.52
107. L12H  2.52
108. R10M  2.53
109. A16D  2.54
110. A15D  2.55
111. K6N  2.56
112. C20D  2.56
113. A16S  2.56
114. I8H  2.58
115. V22C  2.58
116. F4D  2.58
117. N5T  2.59
118. N3T  2.6
119. P9W  2.6
120. A15Y  2.61
121. T23Y  2.61
122. F4T  2.61
123. R10L  2.63
124. R11G  2.64
125. Y7H  2.68
126. C20F  2.7
127. K19E  2.71
128. E14D  2.71
129. L12V  2.74
130. N5Y  2.75
131. F4Q  2.76
132. V22I  2.77
133. E24I  2.83
134. E14Q  2.85
135. Q18Y  2.88
136. C20L  2.91
137. E14P  2.92
138. R11H  2.96
139. C2E  2.98
140. L12I  2.98
141. T23F  3
142. Y7V  3.01
143. K6M  3.03
144. A16I  3.03
145. P9E  3.05
146. K19L  3.06
147. Y1Q  3.07
148. E14A  3.07
149. Y7E  3.1
150. P9C  3.11
151. T23V  3.13
152. E14M  3.14
153. E13P  3.17
154. K6F  3.19
155. L21Q  3.19
156. L21Y  3.19
157. K6G  3.22
158. R11I  3.24
159. E24L  3.31
160. V22T  3.32
161. A16C  3.34
162. A15H  3.35
163. K6E  3.37
164. K6V  3.4
165. K6H  3.4
166. V22R  3.88
167. C20Y  4.07
